The RNAGym collection of RNA variant scans (doi:10.1021/acssynbio.7b00057)

B1: Pistol ribozyme (parent)
chain: GGGUCGUUGUUCCAUAAUCGCGUGGAUAUGGCACGCAAGUUUCUACCGGGCACCGUAAAUGUCCGACUGGAGCCGUUCGGGCGGCUAUAAACAGACCUCAGGCCCGAAGCGUGGCGGCACCUGCCGCCGGUGGUAAAAAAGAUCGGAAGAGCACACGUCU

Variants of: B1
Experiment: aptazyme ON/OFF ratio, guanine; higher = stronger switching; co-transcriptional cleavage with and without guanine

Variant	aptazyme ON/OFF ratio
U7G U10C U11A C13A	1.08
U7G U10C U11A C13G	1.06
U7G U10C U11A C13U	1.16
U7G U10C U11A C12U C13U	1.1
U7G U10C U11A C12U C13G	1.11
U7G U10C U11A C12U C13A	1.12
U7G U10C U11G C12G C13G	1.07
U7G U10C U11G C12G C13A	1.11
U7G U10C U11G C12G C13U	1.05
U7G U10A U11G C12U	1.32
U7G U10G C13A	1.29
U7G U10G C13U	1.17
U7G U10G C13G	1.13
U7G U10G U11G C13U	1.2
U7G U10G U11G C13A	1.16
U7G U10G U11G C13G	1.18
U7G U10C C13A	1.04
U7G U10C C13G	1.04
U7G U10C C13U	1.03
U7G U10G U11A C12A C13A	1.14
U7G U10G U11A C12A C13G	1.09

Variant	aptazyme ON/OFF ratio
U7G U10G U11A C12A C13U	1.08
U7G U10G U11C C12U C13U	1.25
U7G U10G U11C C12U C13G	1.3
U7G U10G U11C C12U C13A	1.08
U7G U10G C12G C13U	1.12
U7G U10G C12G C13A	1.21
U7G U10G C12G C13G	1.07
U7G U10G U11G C12A C13A	1.08
U7G U10G U11G C12A C13G	1.1
U7G U10G U11G C12A C13U	1.13
U7G U10C C12U C13G	1.06
U7G U10C C12U C13U	1.07
U7G U10C C12U C13A	1.04
U7G U10G U11G C12G C13A	1.1
U7G U10G U11G C12G C13U	1.29
U7G U10G U11G C12G C13G	1.11
U7G U10A U11G C12U C13G	1.22
U7G U10A U11G C12U C13A	1.17
U7G U10A U11G C12U C13U	1.28
U7G U10G U11C C12A C13A	1.11
U7G U10G U11C C12A C13U	1.17

Variant	aptazyme ON/OFF ratio
U7G U10G U11C C12A C13G	1.12
U7G U11C C12G	1.26
U7G U11C C12A	1.21
U7G U11C C12U	1.27
U7G U10G U11G C12U C13U	1.36
U7G U10G U11G C12U C13A	1.13
U7G U10G U11G C12U C13G	1.17
U7G U10C U11C C13G	1.01
U7G U10C U11C C13A	1.06
U7G U10C U11C C13U	1.05
U7G U10C U11C C12G C13G	1.08
U7G U10C U11C C12G C13A	1.1
U7G U10C U11C C12G C13U	1.06
U7G U10C U11G C12G	1.15
U7G U10C U11G C12U	1.2
U7G U10C U11G C12A	1.12
U7G U10C C12A C13G	1.1
U7G U10C C12A C13A	1.1
U7G U10C C12A C13U	1.12
U7G U10G U11C C13G	1.07
U7G U10G U11C C13A	1.11

Variant	aptazyme ON/OFF ratio
U7G U10G U11C C13U	1.13
U7G U10G U11A C12U	1.1
U7G U10G U11A C12A	1.14
U7G U10G U11A C12G	1.08
U7G U10C U11C C12G	1.13
U7G U10C U11C C12U	1.12
U7G U10C U11C C12A	1.1
U7G U10C U11C C12U C13U	1.09
U7G U10C U11C C12U C13A	1.06
U7G U10C U11C C12U C13G	1.09
U7G U10C U11A C12A	1.18
U7G U10C U11A C12U	1.2
U7G U10C U11A C12G	1.18
U7G U10G U11A C12U C13A	1.1
U7G U10G U11A C12U C13G	1.16
U7G U10G U11A C12U C13U	1.08
U7G U10G U11G C12U	1.24
U7G U10G U11G C12A	1.08
U7G U10G U11G C12G	1.15
U7G U10A U11G C12G C13U	1.63
